Source: patent US20040088744A1

Biological target: fusion protein consisting of apoB17 and the receptor binding domain of apoB ("B17(B69-79)")
Test: cell-based or functional assay

secretion of the fusion protein: 10 fold
Substance: ligand binding domain of the LDL receptor ("soluble LDL receptor") (from UniProt P01130 22-354)
